Laboratory results: patent US20250320281A1

Experiments:
[1] = target: HIV-1 Env of pseudovirus isolate MGRM-G-001 (HIV-1); assay: cell-based or functional assay
[2] = target: HIV-1 Env of pseudovirus isolate MGRM-G-004 (HIV-1); assay: cell-based or functional assay
[3] = target: HIV-1 Env of pseudovirus isolate MGRM-G-006 (HIV-1); assay: cell-based or functional assay
[4] = target: HIV-1 Env of pseudovirus isolate MGRM-G-009 (HIV-1); assay: cell-based or functional assay
[5] = target: HIV-1 Env of pseudovirus isolate MGRM-G-011 (HIV-1); assay: cell-based or functional assay
[6] = target: HIV-1 Env of pseudovirus isolate MGRM-G-013 (HIV-1); assay: cell-based or functional assay
[7] = target: HIV-1 Env of pseudovirus isolate MGRM-G-014 (HIV-1); assay: cell-based or functional assay
[8] = target: HIV-1 Env of pseudovirus isolate MGRM-G-015 (HIV-1); assay: cell-based or functional assay
[9] = target: HIV-1 Env of pseudovirus isolate MGRM-G-016 (HIV-1); assay: cell-based or functional assay
[10] = target: HIV-1 Env of pseudovirus isolate MGRM-G-017 (HIV-1); assay: cell-based or functional assay
[11] = target: HIV-1 Env of pseudovirus isolate MGRM-G-019 (HIV-1); assay: cell-based or functional assay
[12] = target: HIV-1 Env of pseudovirus isolate MGRM-G-027 (HIV-1); assay: cell-based or functional assay
[13] = target: envelope of aMLV pseudovirus (negative control); assay: cell-based or functional assay
WT JR-FL gp120 (HIV-1) = assay: ELISA, antigen-coated wells
[14] = target: HIV-1 92RW020 Env (pseudovirus) (HIV-1); assay: cell-based or functional assay
[15] = target: HIV-1 92TH021 Env (pseudovirus) (HIV-1); assay: cell-based or functional assay
[16] = target: HIV-1 92UG005 Env (pseudovirus) (HIV-1); assay: cell-based or functional assay
[17] = target: HIV-1 92UG024 Env (pseudovirus) (HIV-1); assay: cell-based or functional assay
[18] = target: HIV-1 93IN905 Env (pseudovirus) (HIV-1); assay: cell-based or functional assay
[19] = target: HIV-1 94UG103 Env (pseudovirus) (HIV-1); assay: cell-based or functional assay
[20] = target: HIV-1 APV6 Env (pseudovirus) (HIV-1); assay: cell-based or functional assay
[21] = target: HIV-1 CMU02 Env (pseudovirus) (HIV-1); assay: cell-based or functional assay
[22] = target: HIV-1 JRCSF Env (pseudovirus) (HIV-1) (UniProt P20871); assay: cell-based or functional assay
[23] = target: HIV-1 MGRM-A-010 Env (pseudovirus) (HIV-1); assay: cell-based or functional assay
[24] = target: HIV-1 MGRM-C-026 Env (pseudovirus) (HIV-1); assay: cell-based or functional assay
[25] = target: HIV-1 MGRM-C-027 Env (pseudovirus) (HIV-1); assay: cell-based or functional assay
[26] = target: HIV-1 MGRM-C-028 Env (pseudovirus) (HIV-1); assay: cell-based or functional assay
[27] = target: HIV-1 MGRM-D-018 Env (pseudovirus) (HIV-1); assay: cell-based or functional assay
[28] = target: HIV-1 NL43 Env (pseudovirus) (HIV-1); assay: cell-based or functional assay

Chain of 5345_I01 (PGT-137) (antibody) (VH): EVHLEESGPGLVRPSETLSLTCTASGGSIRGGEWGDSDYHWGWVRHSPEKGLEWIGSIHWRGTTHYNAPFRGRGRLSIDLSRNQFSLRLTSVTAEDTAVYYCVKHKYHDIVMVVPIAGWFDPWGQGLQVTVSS
Chain of 5345_I01 (PGT-137) (antibody) (VL): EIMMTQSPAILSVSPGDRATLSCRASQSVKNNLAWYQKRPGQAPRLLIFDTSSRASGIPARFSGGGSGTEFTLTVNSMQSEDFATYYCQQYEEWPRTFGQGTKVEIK

| Substance | IC50 (µg/mL), pseudovirus neutralization [1] [µg/mL] | IC50 (µg/mL), pseudovirus neutralization [2] [µg/mL] | IC50 (µg/mL), pseudovirus neutralization [3] [µg/mL] | IC50 (µg/mL), pseudovirus neutralization [4] [µg/mL] | IC50 (µg/mL), pseudovirus neutralization [5] [µg/mL] | IC50 (µg/mL), pseudovirus neutralization [6] [µg/mL] | IC50 (µg/mL), pseudovirus neutralization [7] [µg/mL] | IC50 (µg/mL), pseudovirus neutralization [8] [µg/mL] | IC50 (µg/mL), pseudovirus neutralization [9] [µg/mL] | IC50 (µg/mL), pseudovirus neutralization [10] [µg/mL] | IC50 (µg/mL), pseudovirus neutralization [11] [µg/mL] | IC50 (µg/mL), pseudovirus neutralization [12] [µg/mL] | IC50 (µg/mL), pseudovirus neutralization [13] [µg/mL] | EC50 (WT JR-FL gp120 (HIV-1)) [µg/mL] | also measured |
| --- | --- | --- | --- | --- | --- | --- | --- | --- | --- | --- | --- | --- | --- | --- | --- |
| 5136_H01 (PGT-131) (antibody) | 0.404 | > 50 | > 50 | > 50 | > 50 | > 50 | 4.31 | > 50 | > 50 | > 50 | > 50 | 2.9 | > 50 | 0.4 |  |
| 5343_B08 (PGT-135) (antibody) | 0.393 | > 50 | > 50 | > 50 | > 50 | > 50 | > 50 | > 50 | > 50 | 0.137 | 0.145 | 0.062 | > 50 | 0.1 | neutralization IC50 (pseudovirus) [14]: 0.157 µg/mL; IC50 (neutralizing activity, pseudovirus) [15]: > 10 µg/mL; IC50 (neutralizing activity, pseudovirus) [16]: > 10 µg/mL; IC50 (neutralizing activity, pseudovirus) [17]: 0.0139 µg/mL; IC50 (neutralizing activity, pseudovirus) [18]: 0.0183 µg/mL; IC50 (neutralizing activity, pseudovirus) [19]: > 10 µg/mL; IC50 (neutralizing activity, pseudovirus) [20]: > 10 µg/mL; IC50 (neutralizing activity, pseudovirus) [21]: > 10 µg/mL; IC50 (neutralizing activity, pseudovirus) [22]: 0.113 µg/mL; IC50 (neutralizing activity, pseudovirus) [23]: > 10 µg/mL; IC50 (neutralizing activity, pseudovirus) [24]: 0.0123 µg/mL; IC50 (neutralizing activity, pseudovirus) [25]: > 10 µg/mL; IC50 (neutralizing activity, pseudovirus) [26]: 2.16 µg/mL; IC50 (neutralizing activity, pseudovirus) [27]: 0.0433 µg/mL; IC50 (neutralizing activity, pseudovirus) [28]: 6.79 µg/mL |
| 5345_I01 (PGT-137) (antibody) | 41.7 | > 50 | > 50 | > 50 | > 50 | > 50 | > 50 | > 50 | > 50 | 34.9 | 0.126 | 0.228 | > 50 | 0.1 |  |
